{
  "source": "the DeepSol protein solubility set",
  "data": [
    {"experiment": "soluble on expression in E. coli; label from the status in PepcDB or PDB records", "values": [
      {"sequence": "MGSDKIHHHHHHMQNKNKTVVKSMALLNLFLHKPSLTLSELVSLTGMPKTSVHRMVSSLEEMGFLSRDASGAYSLGLVFLEFGQLVADRLDIRKIAKPVMEELCREVDEAVQLIMRDGNEAIYVEKIEGTQTVRLYTAIGRRSPLYAGACARSILSFLPREEIEAYIKQTELISIGSGTITDPEKLLQEIDASVQNGYTVSYSELENYTAAIGAPIFNHERQVAAGISIAGFEARFTEDRLPYLTEKVKDAALQISRK", "soluble on expression in E. coli": "not soluble"},
      {"sequence": "MSLDKAPERVVSVGYTDDQTVLAFGIKPVGMVDQYPNPAGQSPDINTQWPWVKDKWGDTKPEVVMKNGDTGPNFEKIAALRPDLIVAVYSEIDQAAYDKLSKIAPTVGRTKGEKEPFSAPWQDNALHIAKALGKAEEGEKMVADIQGKLDAAKQAHPEFADKTAVVLSWYKDSVAPFTSTDVRGRLVTGIGFKYETEIDKVAGGDFYTTLSPERVDLVDVDRVFVINDKADQDALKKFELFTNLDAVKNGKVSYLLDSEGPAVGAAISQGTLLSMPYAVDELVKSAGEGHHHHHH", "soluble on expression in E. coli": "soluble"},
      {"sequence": "SLNPLDSFKSQVEANVTGLGADKDIQALSRIWSRETNRNGYTYNYSWLGRPIIQYPQDIMAMQELIWSIQPDLIIETGIAHGGSLIFSASMLELNAISGGPQDAEVLGIDIDIRQHNREAIEAHPMVKRISMIQGSSIAPEIIEQVKAKAEGKQKILVCLDSNHTHDHVLAELEAYAPLTSVGSYCVVFDTVVEDLPDEMFGDRPWGVGNNPKTAVWEYLKTHPEFEIDKSIQHKLLITVAPDGYLKRLG", "soluble on expression in E. coli": "soluble"},
      {"sequence": "MSLPGFEISAQFRFLLSVTALLVREEFGRAPSLGQTQSLLQNGFSSAVVEKVNQNLVSHLNVLDGLQPFMGRPRLHPEGPKDASRRIGPGDQEVKKLSPAMPSEQGEDYWNLLVEFPDSLSISEATLKIVTYHYFSMAGNNKFDGDKTRMGAPGIRFPGKGYAATEHIWIREGSSLLRSLLTSLPTSWVKGEGLPAWADRTAQKSRTGQQQFHALWEATWSSNTVVSYWEDGYLTGVRVGGIPPAWWPDIPNTKEGEKALKLWWDQRNEKDPLYFYLKNKKGEPKAQRIDFGRDGIDLAVEWAAEAKMMDLVEKTYKNVLPVDSYPTVDGDDEGIDKYQLVFFRHQVEGTASSPSIRASEVFLADRSVWAFDLSCDEQLRLRDNAQLVRDVYITLLGVFRRKSAADASREVATGWGAAVLDSLAVSQSDASDAYWRGVTDVYQKYLADLRVGEEITEELYRGIRSAALEAYDEVTAPYLAQYANEIYYVRASLVRSVNSKINTARDEGIGRIKEESNE", "soluble on expression in E. coli": "not soluble"},
      {"sequence": "MAHHHHHHMVGLRTRNVIDPIHGGVGRVIGGKGVSIDRNDGSIISDNEGENDRNGGDIPKAEGEEGRDAQDKGNAKVVMPIDEANQSNIANICSCDFTERLNFIPQEKTKVVCNLNPHHGEEVKIWVNKEYEVKCFQNSRVYCPSKDNIVNNTDITTYSPKLKYNISDVVHRDREVKEYHLQIDKDASDILLFCSIKPKQVSELLEGEVKINLKREISEEYSIPDEHGIHACNFSKGNLDISPSAGFYYKNDRSVSCIYLVIPNKLFLIKLPKLDIVTNQLLPSLVNCLSEHSFINFNLKHVEEGDESISLHLSFGDFKRTFNLSCAFDLSEYVIEPCLLGKKGIVTFYFNA", "soluble on expression in E. coli": "not soluble"},
      {"sequence": "MSTQLATSMEIIRKSLRKAAEDVLHINSKNAISNEVDSEEFKETLMKDAMKLMELETEGAQMQHIFEALHNDLKDGSDEVPNEKALEELYEKAKKTHKNVKGERQYFKDIIKSIRDESKNDENEMEVMQVQHSRKDPISKKDIVNPVISKNCGHVYDRDSIHEFAGKKRVIKCAMQGCSETINIGQLADYPDYWTNIKQQQ", "soluble on expression in E. coli": "not soluble"},
      {"sequence": "MTLGLKDLYYAVCTEADGAESYGTPKKMAEAMSADLSVKTADGSLYADDTLSESVTEFASGTLKLGIKDLTPEVLAELLGQAVDKNSVVWAGKEDEPPYVAVGFRAKKTGGKYRYVWLLKAKFKVPSEKYETKGESIKFNTPDIEASFTTRKKDNLWKADFVGTEESAAAKTWFTAVPEKAAAMESVLEHHHHHH", "soluble on expression in E. coli": "soluble"},
      {"sequence": "STSTFQTRRRRLKKVEEEENAATLQLGQEFQLKQINHQGEEEELIALNLSEARLVIKEALVERRRAFKRSQKKTREKELESIDVLLEQTTGGNNKDLKNTMQYLTNFSRFRDQETVGAVIQLLKSTGLHPFEVAQLGSLACDTADEAKTLIPSLNNKISDDELERILKELSNLETLY", "soluble on expression in E. coli": "soluble"},
      {"sequence": "MSKKFFLSLGLVALLFSNSQAIDENLIKAAQAEGRVNSLAMPDTWANWKDTWADLKNLYDIEHSDTDMSSAQEIAKFKTEKKNASGDIGDVGASFGEIAVKQGVAQPFKTSYWDQIPTWAKDKDGNWLLAYTGTIAFIVNKDVVKDIPKTWQDLLKGNYKITVGDVSVAAQAVSAVLAANYALGGDEKDLSPALAFFNTLAKQGRLVNNDVSIANLEKGEVEVGLVWDFNGLGYRDKVGKDRYEVLIPADGSVISGYTTIINKYAKHPNAAKLAREFILSDKGQINLAKGYARPIRIDHITLPDDIKAKLLPSEQYKNARAIKDQKAWEKSAKELPQLWQEKVIVDMK", "soluble on expression in E. coli": "not soluble"},
      {"sequence": "MSTATRPSSSATTSVILENPVSQSQPTERLVLRLNRKKKKVSWKDGTVDNEFMQKKSSKKCCIFHKQKPFDEDDSEEEDDNNHHCDHNHEHSESGEASSSNDSKAVDMGHHHHHHSH", "soluble on expression in E. coli": "soluble"},
      {"sequence": "SGKTSQRKQCDCENPSKPCLSTSIPLRMSSYTFKRPVTKITSHLGNEVRYYQWEETFKKPEQACWQKRLQGLQAYSSAGELLSTSDLAKTLKDLTSTDTVASASDTQAASIDITSVPTLESSSHLANMIPEAGPQILCKEFLVTEQDIINQERKVKIARERLAVALIAHKLASEMETVRGSRKANL", "soluble on expression in E. coli": "soluble"},
      {"sequence": "MKAPVRVAVTGAAGQIGYSLLFRIAAGEMLGKDQPVILQLLEIPQAMKALEGVVMELEDCAFPLLAGLEATDDPKVAFKDADYALLVGAAPRKAGMERRDLLQVNGKIFTEQGRALAEVAKKDVKVLVVGNPANTNALIAYKNAPGLNPRNFTAMTRLDHNRAKAQLAKKTGTGVDRIRRMTVWGNHSSTMFPDLFHAEVDGRPALELVDMEWYEKVFIPTVAQRGAAIIQARGASSAASAANAAIEHIRDWALGTPEGDWVSMAVPSQGEYGIPEGIVYSFPVTAKDGAYRVVEGLEINEFARKRMEITAQELLDEMEQVKALGLI", "soluble on expression in E. coli": "soluble"},
      {"sequence": "MGSDKIHHHHHHMSDSHQGSCLCGAVRFRTKGALRGVVYCHCSQCRKQSGHFYAATNVADADIVIEGTESITWYEASAFAGRGFCKTCGSVLFWKPRTQDYISVMAGAFDKPTGLKGDCHIFVGDKGDYYSIDDGLPQFEKSTPSIAVAE", "soluble on expression in E. coli": "not soluble"},
      {"sequence": "MQAEGEKSDKISKISTGIPRVDELLYGGFDGRDNIVVSGNNFSQKRSFIYNFIKSSANSGMKVIIINVDGSSESLLADLARRGTDLENIILLDGFSKNFQEKVPPNAEVIDDPSNVSSVLKQYMLRAQKEKDFIFVFLSATPYLMDFNDQNRKFFVQLVHWNRKNSLLSTYVLDDFVGQTTAEWFAYMMDFSLYFKNDGDYDYMRVLSLKPVRTKDWIRIYKDSDVFTLGSFNVERIR", "soluble on expression in E. coli": "not soluble"},
      {"sequence": "MTTARPAKARNEGQWALGHREPLNANEELKKAGNPLDVRERIENIYAKQGFDSIDKTDLRGRFRWWGLYTQREQGYDGTWTGDDNIDKLEAKYFMMRVRCDGGALSAAALRTLGQISTEFARDTADISDRQNVQYHWIEVENVPEIWRRLDDVGLQTTEACGDCPRVVLGSPLAGESLDEVLDPTWAIEEIVRRYIGKPDFADLPRKYKTAISGLQDVAHEINDVAFIGVNHPEHGPGLDLWVGGGLSTNPMLAQRVGAWVPLGEVPEVWAAVTSVFRDYGYRRLRAKARLKFLIKDWGIAKFREVLETEYLKRPLIDGPAPEPVKHPIDHVGVQRLKNGLNAVGVAPIAGRVSGTILTAVADLMARAGSDRIRFTPYQKLVILDIPDALLDDLIAGLDALGLQSRPSHWRRNLMACSGIEFCKLSFAETRVRAQHLVPELERRLEDINSQLDVPITVNINGCPNSCARIQIADIGFKGQMIDDGHGGSVEGFQVHLGGHLGLDAGFGRKLRQHKVTSDELGDYIDRVVRNFVKHRSEGERFAQWVIRAEEDDLR", "soluble on expression in E. coli": "soluble"},
      {"sequence": "MGQPPAEEAEQPGALAREFLAAMEPEPAPAPAPEEWLDILGNGLLRKKTLVPGPPGSSRPVKGQVVTVHLQTSLENGTRVQEEPELVFTLGDCDVIQALDLSVPLMDVGETAMVTADSKYCYGPQGSRSPYIPPHAALCLEVTLKTAVDLEHHHHHH", "soluble on expression in E. coli": "soluble"},
      {"sequence": "SNAMSQEAFENKLYANLEAVIDPELGVDIVNLGLVYDVTADENNNAVITMTMTSIGCPMAGQIVSDVKKVLSTNVPEVNEIEVNVVWNPPWSKERMSRMAKIALGIRD", "soluble on expression in E. coli": "soluble"},
      {"sequence": "MSLKNIFSVLEERVERTPDDNLVEYKNAQGEWAAFTAAEFKNKVVALAKGLIARGVMPGDSVSIIAHTCWQWTALDVAIMSIGALTVPVYETNSPAQVKMIFNDANVKMAFAEDDFQRDKIESVRDQCPDLGDVYVIGLGAIDTIIEYGRAVSDAEFLEREQAVKGSDLATIVYTSGSTGTPKGVELTHANFVFITYSGVNSMPDIAMKPNRRLLLFLPLAHVFARYMQFFCFAGNVSLGLSSNLKTILADFKAFKPTFILAVPRIFEKIYNAASQKAGAGFKGRVFADATQTACDWSHAQQSGGSIPLALNAKHALYNKLVYSSIMEVFGGHVEYAVSGGAPLDSSIAHFFNGVGLSLLEGYGMTETCAPSSVNPTEGYKIGTIGLPLQGVTMGVDEEGELCIKSPAVCAGYHNNPDVTKQQIVDGWLHTGDLGSIDDDGFVSIVGRKKDLIITAGGKNVSPCEMEASIMTSPVVSQCVMIGDRKPFIAAIISLDLAETNLWLESKGAEQVADLDEASKNPIVRAEVERAVNKANELASRAESIRKFEIVPDEFTEENGLVTPSMKARRQAVVEHYRTLIDKEGHHHHHH", "soluble on expression in E. coli": "not soluble"},
      {"sequence": "MSLDLETDVVAGTAERKGSAEGKVEIEDRHVTKVSLPVQVVTGDENTLCYYTAIFDGHDGSSCAQYATVNLHKNLISLYRQIYSTVQRRKFLSVGLEALVKATAKSFFMTDHNFLDSARKSGVEQDAGSTACVVLLFGPDDDGQLKLLTAHAGDTRAVLCRDDRALRLTEDHRPNHKLEQRRVQQNGGEVMNIEGVWRVIFVDRKTNRLFGLATSRALGDRRMKVPKKLVTCQPTLHVYAINFETDLFLVLASDGIWDVLSDEEVVAIVSEHLDKPPQEAARFVIDEAVKRGSEDDKTCTVLFFKWRRDRFPSEGHHHHHH", "soluble on expression in E. coli": "soluble"},
      {"sequence": "MTRLLDATWEKELLAASARLSQAQEENFLDLVDAAEGRIDETIARVLLRTFSAKDDYGTQERVVSVLSTGADQVVIDAIVEEMPRLALEAPEWAQTLLGTEVEFRPDLTARALSQAPTICRIAAENILKNEDFQSQYPNAALVLGQLDA", "soluble on expression in E. coli": "not soluble"},
      {"sequence": "MMTRLPLGATLPDFPWDSLADAKKTASSHPDGLINLSVGSPVDEVAPGIRLALAEAAAAPGYPQTIGTQELRAAIVDSLQRRYHATSLGGVLPVVGTKEAIALLPTLLGIRGTVVIPEVAYPTYEVGALMAGATPLRCDAPHELPNDDIDLVFINSPSNPTGRVASVEELRSIVAWAQANDVIVASDECYLGLAWDGEAVSILDPRVNDGNLSNLLAIHSLSKSSNLASYRAGFLAGDEALIAELTEIRKHSGLMVPGPIQAAMVEALRDDDQEALQKLRYARRRALLMRALIDAGFTVEHSEAGLYLWATRGENCRATVDWFASHGILVAPGDFYGPDAHNFVRVALTTTDDNAEKVAARLQKGN", "soluble on expression in E. coli": "soluble"},
      {"sequence": "MPMLSEEEGGAKIVLEGPKELLDRIVEALKEVYDPEIPVNVYDLGLIYEVRVEGPREKPRIKVKMSLTAIGCPVSVALPAYVEDAIREAVPEAEDVEVEVVFDPPWTPERVTPEGRELLKTIYGYDVVEQWKRAAQQQYGG", "soluble on expression in E. coli": "soluble"}
    ]}
  ]
}
